Measurements taken from US20230173098A1, “NANOPARTICLE COMPLEX FOR ORAL ADMINISTRATION AND USES THEREOF” (IUCF-HYU (Industry-University Cooperation Foundation …, priority 2021, published 2023).

How the values were obtained:
[1] = PTT efficiency and photothermal heating profile under 532 nm PTT laser in vials; type: physicochemical
[2] = test system: small intestine endothelial cells (Caco-2); test: Cytotoxicity (EZ-Cytox, TEM morphology) in small intestine endothelial cells; type: cell-based, human; details: Caco-2, gold equivalent 10 μM, 24 hours
Protocol: (§1) Specifically, human umbilical vein endothelial cells (HUVECs) and small intestine endothelial cells (Caco-2) were seeded in 96-well plates at a seeding density of 5×10^3 cells for each well and incubated for 24 hours in a CO2 incubator. Next, AuNP, Ce6-AuNP and Lf-PEG-AuNP (gold equivalent concentration of 10 μM) were applied for 24 hours. Next, after washing with PBS buffer, wells were treated with a culture medium containing EZ-Cytox at 37° C. and 5% CO2 for 4 hours. In this case, the absorbance of the medium was measured with a micro-well plate reader at a wavelength of 450 nm, and the results are illustrated in FIGS. 16, 17A and 17B.

[3] = test system: human umbilical vein endothelial cells (HUVECs); test: Cytotoxicity (EZ-Cytox, TEM morphology) in vascular endothelial cells; type: cell-based; details: gold equivalent 10 μM, 24 hours
Protocol: as §1

[4] = 532 nm, 4 W/cm^2, 240 sec, gold equivalent 10 μM

B1: AuNP-Lf: PEGylated Lf-conjugated AuNP (conjugate, UniProt P02788 20-710, looked up)
Lactotransferrin: GRRRSVQWCAVSQPEATKCFQWQRNMRKVRGPPVSCIKRDSPIQCIQAIAENRADAVTLDGGFIYEAGLAPYKLRPVAAEVYGTERQPRTHYYAVAVVKKGGSFQLNELQGLKSCHTGLRRTAGWNVPIGTLRPFLNWTGPPEPIEAAVARFFSASCVPGADKGQFPNLCRLCAGTGENKCAFSSQEPYFSYSGAFKCLRDGAGDVAFIRESTVFEDLSDEAERDEYELLCPDNTRKPVDKFKDCHLARVPSHAVVARSVNGKEDAIWNLLRQAQEKFGKDKSPKFQLFGSPSGQKDLLFKDSAIGFSRVPPRIDSGLYLGSGYFTAIQNLRKSEEEVAARRARVVWCAVGEQELRKCNQWSGLSEGSVTCSSASTTEDCIALVLKGEADAMSLDGGYVYTAGKCGLVPVLAENYKSQQSSDPDPNCVDRPVEGYLAVAVVRRSDTSLTWNSVKGKKSCHTAVDRTAGWNIPMGLLFNQTGSCKFDEYFSQSCAPGSDPRSNLCALCIGDEQGENKCVPNSNERYYGYTGAFRCLAENAGDVAFVKDVTVLQNTDGNNNEAWAKDLKLADFALLCLDGKRKPVTEARSCHLAMAPNHAVVSRMDKVERLKQVLLHQQAKFGRNGSDCPDKFCLFQSETKNLLFNDNTECLARLHGKTTYEKYLGPQYVAGITNLKKCSTSPLLEACEFLRK
modifications: PEGylated gold nanoparticle conjugate
PTT efficiency / heat generation (in words) ([1]; 532 nm PTT laser, 4 W/cm^2): higher PTT efficiency | Maximum temperature (Tmax) [1, 4]: 56.3 ± 0.5 °C | PTT efficiency (Tmax − T0) [1, 4]: 29.6 ± 0.2 °C | cytotoxicity and morphological changes [2]: not detected | cytotoxicity and morphological changes [3]: not detected
